In article PMC5119558, “Applying bimolecular fluorescence complementation to screen and purify aquaporin protein:protein complexes” (Protein Science : A Publication of the Protein Society, 2016):

B1: YFPN‐AQP0 of the recloned pair YFPN‐AQP0 + YFPC‐CaM* (hexa‐histidine tag moved away from the AQP0 moiety) (natural protein, human, UniProt P30301 1-263, looked up)
chain: MWELRSASFWRAIFAEFFATLFYVFFGLGSSLRWAPGPLHVLQVAMAFGLALATLVQSVGHISGAHVNPAVTFAFLVGSQMSLLRAFCYMAAQLLGAVAGAAVLYSVTPPAVRGNLALNTLHPAVSVGQATTVEIFLTLQFVLCIFATYDERRNGQLGSVALAVGFSLALGHLFGMYYTGAGMNPARSFAPAILTGNFTNHWVYWVGPIIGGGLGSLLYDFLLFPRLKSISERLSVLKGAKPDVSNGQPEVTGEPVELNTQAL
notes: aquaporin 0 (AQP0), human; gene codon optimized for yeast (Genscript); As m1 but without the His tag; The purified complex is read by its size (about 500 kDa) as an octameric form of the aquaporin; also called hAQP0; source: S. cerevisiae, co-expressed with YFPC-CaM*, purified as a complex (DDM-solubilised membranes, Ni-NTA, SEC); not shown: YFPN (SYFP2 amino acids 1 to 154, linker KQKVMNH), …
B2: isolated AQP0 (expressed and purified separately) (natural protein, human, UniProt P30301 1-263, looked up)
chain: B1 chain
notes: also called pure protein AQP0; source: expressed and purified separately

Assays:
[1] = target: the molecule itself; assay: pull-down + SEC; YFPN-AQP0 + YFPC-CaM* co-expressed in S. cerevisiae; membranes solubilised in DDM; HisTrap HP (Ni-NTA) by the His tag on YFPC-CaM*, eluted with 250 mM imidazole; then FSEC on Superose6 Increase (20 mM Tris-HCl pH 7.5, 100 mM NaCl, 5 mM CaCl2, 1% β-OG); fluorescent peak at 15 mL on SDS-PAGE (Coomassie), immunoblot with anti-AQP0 and anti-CaM
[2] = target: the molecule itself; assay: SEC; isolated AQP0 alone on SEC

| Protein | stoichiometry N [1] | stoichiometry N [2] |
| --- | --- | --- |
| B1 | 8 |  |
| B2 |  | 4 |
